Data taken from PMC7083622.

Key:
Zscan4(ZnF) [1] = target: T1, Zscan4(ZnF) (Mus musculus, UniProt Q80VJ6 369-506); assay: EMSA
T1 sequence: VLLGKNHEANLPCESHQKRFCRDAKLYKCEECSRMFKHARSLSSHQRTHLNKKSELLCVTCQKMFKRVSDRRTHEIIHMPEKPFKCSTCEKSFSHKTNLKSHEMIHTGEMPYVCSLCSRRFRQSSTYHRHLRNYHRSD

Zscan4(ZnF) [2] = target: T1, Zscan4(ZnF); assay: EMSA; remark: listed apart in the source

B1: (TG)n oligo (dsDNA)
DNA 1: TGTGTGCATCTGTGTGCATCAT
DNA 2: ATGATGCACACAGATGCACACA
- Kd (Zscan4(ZnF) [1]): ~500 µM

B2: (GC)n oligo (dsDNA)
DNA 1: TCGCGCGTCGCGCGTCGCGCGC
DNA 2: GCGCGCGACGCGCGACGCGCGA
- binding result (Zscan4(ZnF) [2]): no binding
